Measurements published in patent US20200262877A1, “ION CHANNEL-BINDING PEPTIDES AND METHODS OF USE THEREOF” (priority 2017, published 2020).

Tests used:
5HT3a = target: T1, 5HT3a (Homo sapiens, UniProt P46098); experiment: Ion channel panel (IonWorks Barracuda): 5HT3a; format: cell-based
T1 construct: host or cells: HEK293 or CHO
T1 sequence (P46098 whole entry, looked up): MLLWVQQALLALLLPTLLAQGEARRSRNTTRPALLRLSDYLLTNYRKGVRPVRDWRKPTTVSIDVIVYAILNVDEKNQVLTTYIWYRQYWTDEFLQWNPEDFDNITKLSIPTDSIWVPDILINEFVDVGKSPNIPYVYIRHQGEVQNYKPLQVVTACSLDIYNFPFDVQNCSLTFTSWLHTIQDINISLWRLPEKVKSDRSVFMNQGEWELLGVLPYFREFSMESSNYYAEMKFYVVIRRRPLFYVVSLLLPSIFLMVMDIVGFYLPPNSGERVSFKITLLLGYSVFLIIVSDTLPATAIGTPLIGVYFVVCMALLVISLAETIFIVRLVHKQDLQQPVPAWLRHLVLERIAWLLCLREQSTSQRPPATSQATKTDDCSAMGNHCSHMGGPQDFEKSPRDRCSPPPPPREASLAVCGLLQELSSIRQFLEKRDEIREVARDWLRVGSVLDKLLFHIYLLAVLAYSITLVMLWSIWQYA
How it was run: (§1)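 Transfected HEK293 or CHO cells were exposed for at least 5 min to peptides at 200 nM and 20 μM final, tested in duplicate, in HEPES-buffered physiological saline. Activation was taken as peptide-plus-agonist current over control current ×100, and inhibition as 1 minus that ratio ×100. Each channel's control was its own reference compound.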

α3β4 = target: T2, α3β4 (Homo sapiens, UniProt P30926+P32297); experiment: Ion channel panel (IonWorks Barracuda): α3β4; format: cell-based; settings: 100% = no change, <100% = inhibition
T2 construct: host or cells: HEK293 or CHO
How it was run: as §1

α4β2 = target: T3, α4β2 (Homo sapiens, UniProt P17787+P43681); experiment: Ion channel panel (IonWorks Barracuda): α4β2; format: cell-based; settings: 100% = no change, <100% = inhibition
T3 construct: host or cells: HEK293 or CHO
How it was run: as §1

Cav2.1 = target: T4, Cav2.1 (Homo sapiens, UniProt O00555); experiment: cell-based; settings: 100% = no change, <100% = inhibition
T4 construct: host or cells: HEK293 or CHO
How it was run: as §1

Cav2.2 = target: T5, Cav2.2 (Homo sapiens, UniProt Q00975); experiment: cell-based; settings: 100% = no change, <100% = inhibition
T5 construct: host or cells: HEK293 or CHO
How it was run: as §1

Kv2.1 = target: T6, Kv2.1 (Homo sapiens, UniProt Q14721); experiment: cell-based; settings: 100% = no change, <100% = inhibition
T6 construct: host or cells: HEK293 or CHO
T6 sequence (Q14721 whole entry): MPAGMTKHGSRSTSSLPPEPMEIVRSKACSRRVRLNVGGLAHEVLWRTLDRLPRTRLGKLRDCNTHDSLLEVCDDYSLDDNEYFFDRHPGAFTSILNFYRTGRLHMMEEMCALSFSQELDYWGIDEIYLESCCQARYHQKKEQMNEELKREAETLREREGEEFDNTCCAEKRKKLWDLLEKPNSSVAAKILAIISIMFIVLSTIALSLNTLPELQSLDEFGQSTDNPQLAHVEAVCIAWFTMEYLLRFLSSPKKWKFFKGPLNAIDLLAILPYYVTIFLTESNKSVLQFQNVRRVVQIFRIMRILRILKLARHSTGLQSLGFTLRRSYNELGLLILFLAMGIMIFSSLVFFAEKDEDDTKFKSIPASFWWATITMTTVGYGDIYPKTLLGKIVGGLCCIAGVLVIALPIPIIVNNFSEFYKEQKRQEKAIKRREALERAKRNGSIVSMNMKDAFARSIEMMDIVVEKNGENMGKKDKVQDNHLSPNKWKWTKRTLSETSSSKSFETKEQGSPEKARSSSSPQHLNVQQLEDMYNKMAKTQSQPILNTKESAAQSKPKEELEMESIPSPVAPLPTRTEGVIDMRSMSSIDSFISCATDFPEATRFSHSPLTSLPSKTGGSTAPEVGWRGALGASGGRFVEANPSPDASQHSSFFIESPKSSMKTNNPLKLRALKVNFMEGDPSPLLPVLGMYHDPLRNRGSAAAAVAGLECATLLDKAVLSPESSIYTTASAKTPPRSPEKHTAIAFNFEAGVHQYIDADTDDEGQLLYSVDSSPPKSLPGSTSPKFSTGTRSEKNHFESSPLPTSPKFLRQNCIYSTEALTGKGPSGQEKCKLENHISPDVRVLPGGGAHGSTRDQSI
How it was run: as §1

GABA = experiment: Ion channel panel (IonWorks Barracuda): GABA; format: cell-based; settings: 100% = no change, <100% = inhibition
How it was run: as §1

Nav1.5 = Nav1.5 (Homo sapiens, UniProt Q14524); experiment: in vitro; settings: 100% = no change; for Activity of Nav1.5 with peptide, expressed as a percentage of the reference compound: peptide at 0.2 μM; for Activity of Nav1.5 with peptide (percentage of the reference compound): peptide at 20 μM
Nav1.5, sequence (Q14524 whole entry): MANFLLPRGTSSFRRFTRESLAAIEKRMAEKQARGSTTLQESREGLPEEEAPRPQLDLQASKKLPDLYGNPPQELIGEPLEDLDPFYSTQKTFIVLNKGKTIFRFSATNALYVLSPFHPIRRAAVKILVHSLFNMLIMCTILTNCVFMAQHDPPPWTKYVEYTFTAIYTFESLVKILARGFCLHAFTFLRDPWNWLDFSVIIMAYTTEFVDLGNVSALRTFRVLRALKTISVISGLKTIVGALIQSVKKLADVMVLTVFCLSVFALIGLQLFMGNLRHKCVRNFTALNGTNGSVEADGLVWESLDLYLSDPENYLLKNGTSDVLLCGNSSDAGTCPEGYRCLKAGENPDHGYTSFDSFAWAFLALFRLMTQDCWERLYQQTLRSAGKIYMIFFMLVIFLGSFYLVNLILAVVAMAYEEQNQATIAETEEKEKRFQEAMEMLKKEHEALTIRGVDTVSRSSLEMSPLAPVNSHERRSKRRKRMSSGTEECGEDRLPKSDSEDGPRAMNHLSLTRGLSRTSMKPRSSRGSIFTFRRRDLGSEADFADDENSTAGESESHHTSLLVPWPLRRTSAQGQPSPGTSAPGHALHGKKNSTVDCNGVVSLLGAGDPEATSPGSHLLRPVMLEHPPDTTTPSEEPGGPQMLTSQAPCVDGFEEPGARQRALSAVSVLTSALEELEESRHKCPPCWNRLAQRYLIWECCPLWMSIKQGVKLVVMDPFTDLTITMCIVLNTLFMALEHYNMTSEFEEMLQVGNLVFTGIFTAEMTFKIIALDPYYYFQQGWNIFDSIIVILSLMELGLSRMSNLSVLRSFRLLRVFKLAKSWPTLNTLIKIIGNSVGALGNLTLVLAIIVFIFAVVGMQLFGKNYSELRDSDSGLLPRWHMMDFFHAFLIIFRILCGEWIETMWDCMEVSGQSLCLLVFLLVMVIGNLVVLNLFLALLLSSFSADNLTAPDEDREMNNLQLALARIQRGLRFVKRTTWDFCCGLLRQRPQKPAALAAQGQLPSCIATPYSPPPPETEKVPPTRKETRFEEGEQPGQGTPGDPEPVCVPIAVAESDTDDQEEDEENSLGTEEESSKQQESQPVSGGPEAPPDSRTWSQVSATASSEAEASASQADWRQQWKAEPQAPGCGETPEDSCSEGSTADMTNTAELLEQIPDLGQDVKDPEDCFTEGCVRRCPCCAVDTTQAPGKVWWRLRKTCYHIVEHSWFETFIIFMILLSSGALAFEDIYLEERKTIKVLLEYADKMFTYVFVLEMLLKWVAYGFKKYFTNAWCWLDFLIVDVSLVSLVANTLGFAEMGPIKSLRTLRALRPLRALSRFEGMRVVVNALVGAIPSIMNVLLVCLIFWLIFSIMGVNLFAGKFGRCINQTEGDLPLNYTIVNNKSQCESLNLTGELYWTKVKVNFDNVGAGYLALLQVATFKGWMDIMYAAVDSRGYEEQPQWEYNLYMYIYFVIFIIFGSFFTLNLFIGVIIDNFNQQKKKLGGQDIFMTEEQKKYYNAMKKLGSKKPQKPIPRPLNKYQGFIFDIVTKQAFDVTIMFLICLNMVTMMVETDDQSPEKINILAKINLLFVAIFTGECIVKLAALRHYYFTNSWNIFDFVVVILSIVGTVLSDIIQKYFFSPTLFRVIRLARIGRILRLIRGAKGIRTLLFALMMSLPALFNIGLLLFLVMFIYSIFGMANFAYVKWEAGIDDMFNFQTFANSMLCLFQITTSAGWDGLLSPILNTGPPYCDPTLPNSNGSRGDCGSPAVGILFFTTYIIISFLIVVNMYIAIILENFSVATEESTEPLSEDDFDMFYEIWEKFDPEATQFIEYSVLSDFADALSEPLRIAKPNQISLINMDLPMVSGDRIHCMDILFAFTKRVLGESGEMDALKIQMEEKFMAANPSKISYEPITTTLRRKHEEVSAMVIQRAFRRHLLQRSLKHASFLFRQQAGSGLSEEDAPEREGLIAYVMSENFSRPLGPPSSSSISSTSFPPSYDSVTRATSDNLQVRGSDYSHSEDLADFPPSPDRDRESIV
How it was run: as §1

hERG = hERG (Homo sapiens, UniProt Q12809); experiment: in vitro; settings: 100% = no change, <100% = inhibition
How it was run: as §1

Kir2.1 = target: T7, Kir2.1 (Homo sapiens, UniProt P63252); experiment: Ion channel panel (IonWorks Barracuda): Kir2.1; format: cell-based; settings: 100% = no change, <100% = inhibition
T7 construct: host or cells: HEK293 or CHO
How it was run: as §1

Kv1.1 = target: T8, Kv1.1 (Homo sapiens, UniProt Q09470); experiment: cell-based; format: cell-based; settings: 100% = no change, <100% = inhibition
T8 construct: host or cells: HEK293 or CHO
How it was run: as §1

Kv1.2 = target: T9, Kv1.2 (Homo sapiens, UniProt P16389); experiment: cell-based; format: cell-based; settings: 100% = no change, <100% = inhibition
T9 construct: host or cells: HEK293 or CHO
How it was run: as §1

Kv1.3 = target: T10, Kv1.3 (Homo sapiens, UniProt P22001); experiment: cell-based; format: cell-based; settings: 100% = no change, <100% = inhibition
T10 construct: host or cells: HEK293 or CHO
How it was run: as §1

Nav1.7 = target: T11, Nav1.7 (Homo sapiens, UniProt Q15858); experiment: cell-based; format: cell-based; settings: 100% = no change; for Activity of Nav1.7 with peptide, expressed as a percentage of the reference compound: peptide at 0.2 μM; for Activity of Nav1.7 with peptide (percentage of the reference compound): peptide at 20 μM
T11 construct: host or cells: HEK293 or CHO
T11 sequence (Q15858 whole entry): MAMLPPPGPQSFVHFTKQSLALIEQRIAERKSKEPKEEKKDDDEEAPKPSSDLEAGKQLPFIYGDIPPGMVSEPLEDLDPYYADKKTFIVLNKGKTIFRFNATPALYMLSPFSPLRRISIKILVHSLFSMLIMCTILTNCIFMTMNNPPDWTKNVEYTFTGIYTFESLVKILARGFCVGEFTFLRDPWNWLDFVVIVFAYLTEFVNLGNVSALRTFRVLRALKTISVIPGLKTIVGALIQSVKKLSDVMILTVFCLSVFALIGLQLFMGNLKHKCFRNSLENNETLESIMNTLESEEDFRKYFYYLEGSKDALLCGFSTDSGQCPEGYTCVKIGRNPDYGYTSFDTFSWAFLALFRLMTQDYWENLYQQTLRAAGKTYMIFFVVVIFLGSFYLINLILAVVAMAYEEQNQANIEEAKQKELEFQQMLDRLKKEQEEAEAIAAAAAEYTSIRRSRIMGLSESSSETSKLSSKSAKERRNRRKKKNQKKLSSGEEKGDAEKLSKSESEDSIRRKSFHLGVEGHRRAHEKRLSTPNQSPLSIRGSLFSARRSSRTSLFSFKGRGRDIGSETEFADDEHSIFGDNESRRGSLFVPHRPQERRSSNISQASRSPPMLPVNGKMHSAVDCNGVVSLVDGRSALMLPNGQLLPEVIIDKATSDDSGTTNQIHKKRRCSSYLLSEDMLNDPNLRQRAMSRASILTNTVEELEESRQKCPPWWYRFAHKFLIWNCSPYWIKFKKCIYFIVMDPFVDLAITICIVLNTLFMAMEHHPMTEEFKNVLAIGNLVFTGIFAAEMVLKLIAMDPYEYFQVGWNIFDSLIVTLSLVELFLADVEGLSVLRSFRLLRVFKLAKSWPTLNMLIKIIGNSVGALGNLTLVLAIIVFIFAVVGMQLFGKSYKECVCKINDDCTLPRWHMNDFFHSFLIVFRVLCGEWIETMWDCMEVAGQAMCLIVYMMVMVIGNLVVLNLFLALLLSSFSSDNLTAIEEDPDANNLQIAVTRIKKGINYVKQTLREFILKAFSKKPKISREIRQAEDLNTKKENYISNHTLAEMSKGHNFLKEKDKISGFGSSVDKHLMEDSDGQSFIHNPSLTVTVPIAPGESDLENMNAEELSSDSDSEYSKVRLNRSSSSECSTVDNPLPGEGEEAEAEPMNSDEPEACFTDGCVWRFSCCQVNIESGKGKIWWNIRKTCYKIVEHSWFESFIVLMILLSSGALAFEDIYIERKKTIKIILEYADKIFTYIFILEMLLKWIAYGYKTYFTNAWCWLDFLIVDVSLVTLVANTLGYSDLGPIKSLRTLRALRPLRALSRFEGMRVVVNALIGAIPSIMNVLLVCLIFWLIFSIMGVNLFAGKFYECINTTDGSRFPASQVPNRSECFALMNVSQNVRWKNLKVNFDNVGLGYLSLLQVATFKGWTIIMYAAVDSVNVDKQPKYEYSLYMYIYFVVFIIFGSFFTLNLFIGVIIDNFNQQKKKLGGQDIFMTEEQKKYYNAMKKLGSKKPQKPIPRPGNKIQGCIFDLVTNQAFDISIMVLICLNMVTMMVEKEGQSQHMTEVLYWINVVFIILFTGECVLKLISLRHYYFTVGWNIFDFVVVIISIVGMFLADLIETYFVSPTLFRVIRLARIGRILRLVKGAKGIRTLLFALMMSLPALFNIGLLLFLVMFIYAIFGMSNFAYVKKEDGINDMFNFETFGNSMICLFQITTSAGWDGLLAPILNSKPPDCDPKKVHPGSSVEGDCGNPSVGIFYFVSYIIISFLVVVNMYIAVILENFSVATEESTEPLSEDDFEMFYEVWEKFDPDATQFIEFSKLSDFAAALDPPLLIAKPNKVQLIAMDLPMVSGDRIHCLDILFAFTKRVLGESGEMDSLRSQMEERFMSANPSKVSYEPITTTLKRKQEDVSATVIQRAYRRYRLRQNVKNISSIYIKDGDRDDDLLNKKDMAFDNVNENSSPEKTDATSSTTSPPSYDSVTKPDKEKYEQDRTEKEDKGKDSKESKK

NR2A = target: T12, NR2A (Homo sapiens, UniProt Q12879); experiment: Ion channel panel (IonWorks Barracuda): NR2A; format: cell-based; settings: 100% = no change, <100% = inhibition
T12 construct: host or cells: HEK293 or CHO
How it was run: as §1

NR2B = target: T13, NR2B (Homo sapiens, UniProt Q13224); experiment: Ion channel panel (IonWorks Barracuda): NR2B; format: cell-based; settings: 100% = no change, <100% = inhibition
T13 construct: host or cells: HEK293 or CHO
How it was run: as §1

TRPA1 = target: T14, TRPA1 (Homo sapiens, UniProt O75762); experiment: Ion channel panel (IonWorks Barracuda): TRPA1; format: cell-based; settings: 100% = no change, <100% = inhibition
T14 construct: host or cells: HEK293 or CHO
How it was run: as §1

TRPV1 = target: T15, TRPV1 (Homo sapiens, UniProt Q8NER1); experiment: Ion channel panel (IonWorks Barracuda): TRPV1; format: cell-based; settings: 100% = no change, <100% = inhibition
T15 construct: host or cells: HEK293 or CHO
How it was run: as §1

[1] = first of two Nav1.5 columns (probably TP1)
[2] = second of two Nav1.5 columns (probably TP2)
[3] = first of two Nav1.7 columns (probably TP1)
[4] = second of two Nav1.7 columns (probably TP2)

## 27 (GSACQFWSCNSSCISRGYRQGYCWGIQYKYCQCQ) [compound 27]
5HT3a
  Activity of 5HT3a with peptide (percentage of the reference compound): 78%
  Activity of 5HT3a with peptide, expressed as a percentage of the reference compound: 105%
α3β4; peptide at 0.2 μM
  Activity of a3b4 with peptide, expressed as a percentage of the reference compound: 98%
α3β4; peptide at 20 μM
  Activity of a3b4 with peptide (percentage of the reference compound): 93%
α4β2; peptide at 0.2 μM
  Activity of a4b2 with peptide, expressed as a percentage of the reference compound: 90%
α4β2; peptide at 20 μM
  Activity of a4b2 with peptide (percentage of the reference compound): 82%
Cav2.1; peptide at 0.2 μM
  Activity of Cav2.1 with peptide, expressed as a percentage of the reference compound: 108%
Cav2.1; peptide at 20 μM
  Activity of Cav2.1 with peptide (percentage of the reference compound): 103%
Cav2.2; peptide at 0.2 μM
  Activity of Cav2.2 with peptide, expressed as a percentage of the reference compound: 105%
Cav2.2; peptide at 20 μM
  Activity of Cav2.2 with peptide (percentage of the reference compound): 116%
Kv2.1; peptide at 0.2 μM
  Activity of Kv2.1 with peptide, expressed as a percentage of the reference compound: 91%
Kv2.1; peptide at 20 μM
  Activity of Kv2.1 with peptide (percentage of the reference compound): 94%
GABA; peptide at 0.2 μM
  Activity of GABA with peptide, expressed as a percentage of the reference compound: 112%
GABA; peptide at 20 μM
  Activity of GABA with peptide (percentage of the reference compound): 105%
Nav1.5; [1]
  Activity of Nav1.5 with peptide, expressed as a percentage of the reference compound: 94%
  Activity of Nav1.5 with peptide (percentage of the reference compound): 104%
Nav1.5; [2]
  Activity of Nav1.5 with peptide, expressed as a percentage of the reference compound: 93%
  Activity of Nav1.5 with peptide (percentage of the reference compound): 109%
hERG; peptide at 0.2 μM
  Activity of hERG with peptide, expressed as a percentage of the reference compound: 90%
hERG; peptide at 20 μM
  Activity of hERG with peptide (percentage of the reference compound): 75%
Kir2.1; peptide at 0.2 μM
  Activity of Kir2.1 with peptide, expressed as a percentage of the reference compound: 101%
Kir2.1; peptide at 20 μM
  Activity of Kir2.1 with peptide (percentage of the reference compound): 86%
Kv1.1; peptide at 0.2 μM
  Activity of Kv1.1 with peptide, expressed as a percentage of the reference compound: 81%
Kv1.1; peptide at 20 μM
  Activity of Kv1.1 with peptide (percentage of the reference compound): 89%
Kv1.2; peptide at 0.2 μM
  Activity of Kv1.2 with peptide, expressed as a percentage of the reference compound: 84%
Kv1.2; peptide at 20 μM
  Activity of Kv1.2 with peptide (percentage of the reference compound): 107%
Kv1.3; peptide at 0.2 μM
  Activity of Kv1.3 with peptide, expressed as a percentage of the reference compound: 106%
Kv1.3; peptide at 20 μM
  Activity of Kv1.3 with peptide (percentage of the reference compound): 100%
Nav1.7; [3]
  Activity of Nav1.7 with peptide, expressed as a percentage of the reference compound: 104%
  Activity of Nav1.7 with peptide (percentage of the reference compound): 97%
Nav1.7; [4]
  Activity of Nav1.7 with peptide, expressed as a percentage of the reference compound: 114%
  Activity of Nav1.7 with peptide (percentage of the reference compound): 97%
NR2A; peptide at 0.2 μM
  Activity of NR2A with peptide, expressed as a percentage of the reference compound: 98%
NR2A; peptide at 20 μM
  Activity of NR2A with peptide (percentage of the reference compound): 88%
NR2B; peptide at 0.2 μM
  Activity of NR2B with peptide, expressed as a percentage of the reference compound: 79%
NR2B; peptide at 20 μM
  Activity of NR2B with peptide (percentage of the reference compound): 89%
TRPA1; peptide at 0.2 μM
  Activity of TRPA1 with peptide, expressed as a percentage of the reference compound: 85%
TRPA1; peptide at 20 μM
  Activity of TRPA1 with peptide (percentage of the reference compound): 114%
TRPV1; peptide at 0.2 μM
  Activity of TRPV1 with peptide, expressed as a percentage of the reference compound: 99%
TRPV1; peptide at 20 μM
  Activity of TRPV1 with peptide (percentage of the reference compound): 67%
